# Measured values: patent publication US20240287172A1 (SCIRHOM, published 2024)
# T1: hiR2-FL-W526A-T7 (human, UniProt Q6PJF5 1-856)
# T1 sequence: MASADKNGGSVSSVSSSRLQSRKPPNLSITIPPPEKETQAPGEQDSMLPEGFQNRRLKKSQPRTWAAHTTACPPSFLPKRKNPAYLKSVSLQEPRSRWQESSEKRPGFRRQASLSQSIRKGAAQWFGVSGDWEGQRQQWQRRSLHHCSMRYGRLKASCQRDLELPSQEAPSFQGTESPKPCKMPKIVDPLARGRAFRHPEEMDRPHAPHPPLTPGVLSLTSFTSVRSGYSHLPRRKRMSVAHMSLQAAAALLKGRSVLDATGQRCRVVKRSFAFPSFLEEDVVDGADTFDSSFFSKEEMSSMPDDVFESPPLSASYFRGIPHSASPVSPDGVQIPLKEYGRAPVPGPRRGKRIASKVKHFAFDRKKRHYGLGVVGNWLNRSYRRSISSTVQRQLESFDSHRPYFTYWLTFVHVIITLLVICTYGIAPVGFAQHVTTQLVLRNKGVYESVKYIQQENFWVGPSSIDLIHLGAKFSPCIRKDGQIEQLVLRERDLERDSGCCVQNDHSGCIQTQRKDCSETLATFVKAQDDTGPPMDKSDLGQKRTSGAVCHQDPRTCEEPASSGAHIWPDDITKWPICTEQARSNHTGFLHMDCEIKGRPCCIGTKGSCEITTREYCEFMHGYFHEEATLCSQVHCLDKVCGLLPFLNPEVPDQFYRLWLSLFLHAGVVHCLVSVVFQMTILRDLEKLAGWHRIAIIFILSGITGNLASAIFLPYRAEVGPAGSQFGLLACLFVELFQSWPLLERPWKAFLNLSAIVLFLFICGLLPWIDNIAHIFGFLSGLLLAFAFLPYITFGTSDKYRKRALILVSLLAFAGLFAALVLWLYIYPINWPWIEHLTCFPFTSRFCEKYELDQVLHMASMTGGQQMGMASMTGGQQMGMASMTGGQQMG
# T2: hiR2-FL-R543A-T7 (human, UniProt Q6PJF5 1-856)
# T2 sequence: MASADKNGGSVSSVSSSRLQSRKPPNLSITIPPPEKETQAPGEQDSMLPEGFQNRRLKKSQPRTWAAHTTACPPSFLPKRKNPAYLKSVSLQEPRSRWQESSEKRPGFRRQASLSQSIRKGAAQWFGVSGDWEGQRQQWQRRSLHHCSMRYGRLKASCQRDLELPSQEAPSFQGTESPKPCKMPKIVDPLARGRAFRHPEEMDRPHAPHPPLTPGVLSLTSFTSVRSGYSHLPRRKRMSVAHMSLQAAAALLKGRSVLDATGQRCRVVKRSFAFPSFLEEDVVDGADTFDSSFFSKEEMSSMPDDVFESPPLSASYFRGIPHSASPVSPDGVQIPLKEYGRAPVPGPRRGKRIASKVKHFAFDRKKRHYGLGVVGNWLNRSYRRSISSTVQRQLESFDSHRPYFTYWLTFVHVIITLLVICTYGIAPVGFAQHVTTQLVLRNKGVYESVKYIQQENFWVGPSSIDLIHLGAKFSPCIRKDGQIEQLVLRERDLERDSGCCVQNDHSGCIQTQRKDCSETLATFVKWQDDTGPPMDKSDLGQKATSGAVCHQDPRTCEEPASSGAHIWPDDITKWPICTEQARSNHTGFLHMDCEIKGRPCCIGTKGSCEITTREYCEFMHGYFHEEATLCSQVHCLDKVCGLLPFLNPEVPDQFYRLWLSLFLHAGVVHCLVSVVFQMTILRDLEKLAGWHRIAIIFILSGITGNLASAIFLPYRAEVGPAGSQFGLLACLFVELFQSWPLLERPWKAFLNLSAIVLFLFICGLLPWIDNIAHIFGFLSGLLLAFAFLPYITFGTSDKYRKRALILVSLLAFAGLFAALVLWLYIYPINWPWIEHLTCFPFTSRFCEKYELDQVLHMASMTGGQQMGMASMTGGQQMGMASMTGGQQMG
# Key:
# hiR2-FL-W526A-T7 = molecular target: T1, hiR2-FL-W526A-T7; assay: FACS on MEF-DKO cells expressing the variant, 3 µg/ml antibody
# Method: (§1) To pellet cells and remove supernatants, the plates were centrifuged at 1,500 rpm and 4° C. for 3 minutes. For primary staining, cells were resuspended in 100 μl per well of either FACS buffer alone (controls) or the purified antibodies 3, 5, 16, 22, 34, 42, 43, 44, 48, and 50 of the invention at 3 μg/ml in FACS buffer and incubated on ice for 1 hour. Afterwards, plates were centrifuged at 1,500 rpm and 4° C. for 3 minutes and washed twice with 200 μl per well of FACS buffer. For secondary staining, cells were spun down and resuspended in 100 μl per well of PE-conjugated goat anti-mouse IgG F(ab′)2 detection fragment (Dianova, Germany) diluted 1:100 in FACS buffer. Protected from light, the cell suspensions were incubated on ice for 1 hour. Plates were then centrifuged at 1,500 rpm and 4° C. for 3 minutes and washed three times with 200 μl per well of FACS buffer. Finally, cells were resuspended in 150 μl per well of FACS buffer and analyzed using a BD Accuri™ C6 Plus flow cytometer (Becton Dickinson, Germany).
# hiR2-FL-R543A-T7 = molecular target: T2, hiR2-FL-R543A-T7; assay: as above
# Method: as §1
Binder,loss of binding vs wild type (hiR2-FL-W526A-T7) [%],loss of binding vs wild type (hiR2-FL-R543A-T7) [%]
"antibody 5 (antibody, V domains shown, mouse IgG, kappa light chain; also called clone #5; purified antibody 5) VH: QVTLKESGPGILQPSQTLSLTCSFSGFSLSTFGMGVGWIRQPSGKGLEWLAHIWWDDEKYYNSALKSRLTISKATSKNQAFLKIANVDTADTATYYCARISNYGSNYWYFNVWGTGTTVTVSS VL: QVVLTQSPALMSASPGEKVTMTCSAGSSVSCMYWYQQKPGSSPRVLIYDTSNLASGVPARFTGSGSGTSYSLTISRMEAEDAASYYCQQWNSYPLTFGAGTKLELK",≥ 60,≥ 60
"antibody 22 (antibody, V domains shown, mouse IgG, kappa light chain; also called clone #22; purified antibody 22) VH: QVTLKESGPGILQPSQTLSLTCSFSGFSLSTFGMGVGWIRQPSGKGLEWLAHIWWDDEKYYNSALKSRLTISKATSKNQVFLKIANVDTADTATYYCARISNYGSNYWYFNVWGTGTTVTVSS VL: QVVLTQSPALMSASPGEKVTMTCSAGSSVSYMYWYQQKPGSSPRVLIYDTSNLASGVPARFTGSGSGTSYSLTISRMEAEDAATYYCQQWNSYPLTFGAGTKLELK",≥ 30,≥ 60
"antibody 42 (antibody, V domains shown, mouse IgG, kappa light chain; also called clone #42; purified antibody 42) VH: QVTLKESGPGILQPSQTLSLTCSLSGFSLSTFGRGVGWIRQPSGKGLEWLAHIWWDDEKYYNPALKSRLTISKDTSKNQVFLRIANVDTADTATYYCARIQNYGSNYWYFDVWGTGTTVTVSS VL: LIVLTQSPAIMSASPGEKVTMTCGATSRISYMFWYQQKPGSSPRVLIYDTSNLASGVPVRFSGSGSGTSYSLTISRVEAEDVATYYCQQWNSYPLTFGAGTKLELK",≥ 30,≥ 60
"antibody 3 (antibody, V domains shown, mouse IgG, kappa light chain; also called clone #3; purified antibody 3) VH: QVTLKESGPGILQPSQTLSLTCSFSGFSLTTFAMGIGWVRQPSGKGLEWLAHIWWDGEKYNNPVLKSRLTISKDTSKNQVFLRIANVDTPDTATYYCARISSIYYIIDNWGQGTSVTVSS VL: DIVLTQSPATLSVTPGHSVSLSCRASQSISNNLHWYQKKSHESPRLLIKYVSQSISGIPSRFSGSGSGTDFTLSINSVETEDFGMYFCQQSYNWPLTFGAGTKLELK",≥ 30,≥ 30
"antibody 34 (antibody, V domains shown, mouse IgG, kappa light chain; also called clone #34; purified antibody 34) VH: QVTLKESGPGILQPSQTLSLTCSFSGFSLSTFSLGVGWIRQSSGKGLEWLAHIWWDDEKYYNPALKSRLTISKDTSKNQVFLKIANVDAADTATYYCARAYYSKSYYALDYWGQGTSVTVSS VL: DIQMTQSPSSLSASLGERVSLTCRASQEISGYLSWLQQKPDGTIKRLIYAASTLDSGVPKRFSGSRSGSDYSLAISSLESEDFADYYCLQYANFPFTFGSGTKLEIK",≥ 60,≥ 95
"antibody 43 (antibody, V domains shown, mouse IgG, kappa light chain; also called clone #43; purified antibody 43) VH: QVALKESGPGILQPSQTLSLTCSFSGFSLSTFGMGVGWIRQSSGKGLEWLANIWWDDDKYYNPALKSRLTISKDASKNQAFLKIANVDTADTATYYCARIGNYGSNYWYFDVWGTGTTVTVSS VL: QIVLTQSPAIMSASPGERVTMTCSANSRISYMYWYQQKPGSSPRLLIYDTSNLASGVPVRFSGSGSGTSYSLTISRMEAEDAATYNCQQWSSYPLTFGAGTKLELK",≥ 30,≥ 95
"antibody 44 (antibody, V domains shown, mouse IgG, kappa light chain; also called clone #44; purified antibody 44) VH: QVTLKESGPGILQPSQTLSLTCSFSGFSLSTFGMGVGWIRQPSEKGLEWLAHIWWDDDKYYNPALKSRLTISKDTSKNQIFLKITNVDTAETATYYCSRIGNYGSNYWYFDVWGTGTTVTVSS VL: QIVLTQSPAVMSASPGEKVTMTCTASSSVYYMYWYQQTPGSSPRLLIYDTSNLASGVPVRFSGSGSGTSYSLTISRMEAEDAATYYCQQWNTYPLTFGAGTKLELK",≥ 30,≥ 95
"antibody 48 (antibody, V domains shown, mouse IgG, kappa light chain; also called clone #48; purified antibody 48) VH: QVQLQQSGTELVRPGTSVKVSCKASGYAFTNYLIEWVKQRPGQGLEWIGVINPGSGFTKYNEKFKGKATLTADKSSSTVYMHLSSLTSEDSAVYFCARGLYRAMDYWGQGTSVTVSS VL: DIQMTQSPASQSASLGESVTITCLASQTIATWLAWYQQKPGKSPQLLIYGATTLADGVPSRFSGGGSGTKFSFKISSLQAEDFVSYYCQQLYSTPYTFGGGTKLEIK",≥ 30,
"antibody 50 (antibody, V domains shown, mouse IgG, kappa light chain; also called clone #50; purified antibody 50) VH: QVQLQQSGAELVRPGASVKVSCKASGYAFSNYLIEWVKQRPGQGLEWIGVINPGSGFTKYNEKFKGKATLTADKSSSTAYMQLSSLTSEDSAVYFCARGLYRAMDYWGQGTSVTVSS VL: DIQMTQSPASQSASLGESVTITCLASQTIGTWLAWYQQKPGKSPQLLIYAAASLADGVPSRFSGGGSGTKFSFKISSLQAEDFVNYYCQQIYSTPYTFGGGTKLEIK",≥ 30,
